Where “and” joins values, the source holds several entries; their conditions need not be identical. Equal values may be shown once.
B1: Ta βG_81: beta-glucosidase of Thermoascus aurantiacus ALKO4242, gene Ta cel3A, amino acid SEQ ID NO: 22 (protein)
chain: MRLGWLELAVAAAATVASAKDDLAYSPPFYPSPWMNGNGEWAEAYRRAVDFVSQLTLAEKVNLTTGVGWMQEKCVGETGSIPRLGFRGLCLQDSPLGVRFADYVSAFPAGVNVAATWDKNLAYLRGKAMGEEHRGKGVDVQLGPVAGPLGRHPDGGRNWEGFSPDPVLTGVLMAETIKGIQDAGVIACAKHFIGNEMEHFRQAGEAVGYGFDITESVSSNIDDKTLHELYLWPFADAVRAGVGSFMCSYNQVNNSYSCSNSYLLNKLLKSELDFQGFVMSDWGAHHSGVGAALAGLDMSMPGDTAFGTGKSFWGTNLTIAVLNGTVPEWRVDDMAVRIMAAFYKVGRDRYQVPVNFDSWTKDEYGYEHALVGQNYVKVNDKVDVRADHADIIRQIGSASVVLLKNDGGLPLTGYEKFTGVFGEDAGSNRWGADGCSDRGCDNGTLAMGWGSGTADFPYLVTPEQAIQNEILSKGKGLDSVSIVFVNADSGEGYINVDGNEGDRKNLTLWKGGEEVIKTVAANCNNTIVVMHTVGPVLIDEWYDNPNVTAIVWAGLPGQESGNSLVDVLYGRVSPGGKTPFTWGKTRESYGAPLLTKPNNGKGAPQDDFTEGVFIDYRRFDKYNETPIYEFGFGLSYTTFEYSNIYVQPLNARPYTPASGSTKAAPTFGNISTDYADYLYPEDIHKVPLYIYPWLNTTDPEEVLRRSRLTEMKAEDYIPSGATDGSPQPILPAGGAPGGNPGLYDEMYRVSAIITNTGNVVGDEVPQLYVSLGGPDDPKVVLRNFDRITLHPGQQTMWTTTLTRRDISNWDPASQNWVVTKYPKTVYIGSSSRKLHLQAPLPPY

Assays:
[1] = Temperature optimum of heterologously produced xylanase; format: biochemical; details: pH 5.3, 60 min reaction
Procedure: (§1) Thermoascus XYN—30/Xyn10A was produced in T. reesei and the pH optimum of the heterologously produced protein was determined in the universal McIlvaine's buffer within a pH range of 3.0-8.0 using birch xylan as substrate (FIG. 8A). The optimal pH was determined to be 4.5. The temperature optimum for the enzymatic activity of XYN—30 was determined to be 75° C. (FIG. 8B).

[2] = Isoelectric focusing (PhastSystem), pI of purified protein; format: physicochemical; details: IEF gel
Procedure: The sample was dissolved in water and applied to a Superdex 75 HR 10/30 gel filtration column equilibrated with 20 mM sodium phosphate pH 6.0, containing 0.15 M NaCl. Fractions were collected and those containing endoglucanase activity were combined. The protein eluate was judged to be pure by SDS-polyacrylamide gel electrophoresis and the molecular mass was evaluated on the basis of molecular mass standards (prestained SDS-PAGE standards, Broad Range, Bio-Rad) to be 54 kDa. The pI of the purified protein, designated as Ct EG—54 was determined with PhastSystem (Pharmacia) to be ca 5.5.
The sample was applied to a Sephacryl S-100 HR 26/60 gel filtration column equilibrated with 50 mM sodium acetate buffer pH 5.0, containing 0.05 M NaCl. The protein fraction containing endoglucanase activity was eluted from the column with a retention volume corresponding to a molecular weight of 16 kDa. Collected fractions were combined, concentrated and gel filtration was repeated. The protein eluate was judged to be pure by SDS-polyacryl amide gel electrophoresis and the molecular weight was evaluated to be 28 kDa. The pI of the purified protein, designated as Ta EG—28, was determined in an IEF gel (PhastSystem, Pharmacia) to be about 3.5. The specific activity of Ta EG—28 at 50° C. was determined to be 4290 nkat/mg (procedure of IUPAC 1987, using CMC as substrate).
The active material from the anion exchange chromatography was applied to a Sephacryl S-300 HR 26/60 column equilibrated with 20 mM sodium phosphate pH 6.5, containing 0.15 M NaCl. The protein with β-glucosidase activity was eluted with a retention volume corresponding to a molecular weight of 243 kDa. The protein was judged to be pure by SDS-polyacrylamide gel electrophoresis and the molecular weight was evaluated to be 101 kDa. The pI of the purified protein, designated as At βG—101, was determined in an IEF gel (PhastSystem, Pharmacia) to be in the area of 5.6-4.9. The specific activity of At βG—101 at 50° C. was determined to be 1100 nkat/mg (using 4-nitrophenyl-β-D-glucopyranoside as substrate, Bailey and Linko, 1990).
The active material from the cation exchange chromatography was applied to a Sephacryl S-300 HR 26/60 column equilibrated with 20 mM sodium phosphate pH 7.0, containing 0.15 M NaCl. The protein with β-glucosidase activity was eluted with a retention volume corresponding to a molecular weight of 294 kDa. […] The protein was judged to be pure by SDS-polyacrylamide gel electrophoresis and the molecular weight was evaluated to be 81 kDa, representing most likely the monomeric form of the protein. […] The specific activity of the purified protein, designated as Ta βG—81, at 50° C. was determined to be 600 nkat/mg using 4-nitrophenyl-β-D-glucopyranoside as substrate (Bailey and Linko, 1990). […]

[3] = Xylanase activity on birch xylan; format: biochemical
Method in brief: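 Xylanase activity measured on birch glucuronoxylan by the IUPAC 1987 standard procedure, using enzyme purified from Acremonium thermophilum ALKO4245 or Thermoascus aurantiacus ALKO4242 culture supernatant. Protein determined by dye-binding assay against a bovine serum albumin standard.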

[4] = pH optimum of heterologously produced xylanase; format: biochemical; details: McIlvaine's buffer, pH range 3.0-8.0, birch xylan
Procedure: as §1

[5] = β-glucosidase activity on 4-nitrophenyl-β-D-glucopyranoside; format: biochemical
Procedure: (§2) Acremonium Thermophilum ALKO4245 was grown as described in Example 1. The pure β-glucosidase was obtained by sequential purification with hydrophobic interaction and anion exchange chromatography followed by gel filtration. The β-glucosidase activity of the fractions collected during purification was determined using 4-nitrophenyl-β-D-glucopyranoside as substrate (Bailey and Linko, 1990). Protein content was measured by BioRad Assay Kit (Bio-Rad Laboratories) using bovine serum albumine as standard.
as §2, with “Thermoascus aurantiacus ALKO4242” for “Acremonium Thermophilum ALKO4245”, “interaction, anion” for “interaction”, “cation” for “anion”

[6] = Thermal stability of purified β-glucosidase; format: biochemical; details: 0.1 mg/ml BSA, pH 5.0, 60 min, 4-nitrophenyl-β-D-glucopyranoside
Procedure: (§3) Thermal stability of the purified β-glucosidase was determined at different temperatures. The reaction was performed in the presence of 0.1 mg/ml BSA at pH 5.0 for 60 min using 4-nitrophenyl-β-D-glucopyranoside as substrate. A. thermophilum βG—101 was stable up to 70° C. The Aspergillus reference enzyme (Novozym 188) retained 100% of activity up to 60°.
as §3, with “T. aurantiacus βG—81” for “A. thermophilum βG—101”, “75°” for “70°”, “60° C.” for “60°.”

[7] = system: Trichoderma-strains (A47 and Rut-C30); assay: Cellulase induction on βG_81 pretreated Nutriose in shake flask cultivation; format: cell-based; details: 7 days shake flask cultivation
Procedure: A high concentration starch hydrolysate mixture (Nutriose 74/968, Roquette) was treated with Thermoascus aurantiacus βG—81/Cel3A enriched enzyme preparation produced as described in Example 21 to produce a sugar mixture containing appreciable amounts of cellulase inducer (sophorose) to overcome the glucose repression.
The Ta βG—81/Cel3A enriched enzyme preparation was added to a 70% (w/w) Nutriose solution to a final concentration of 1 g total protein/liter. The container of the mixture was incubated in a water bath at 65° C. for 3 days with constant stirring and used as a carbon source in a shake flask medium for two different Trichoderma-strains (A47 and Rut-C30). The effect of the enzyme treatment was measured as an endoglucanase activity formed during a 7 days shake flask cultivation. As a reference cultivations were performed under the same conditions with untreated Nutriose as a carbon source.

[8] = Temperature optimum of heterologously produced β-glucosidases; format: biochemical; details: temperature range 50-85° C., 60 min
Procedure: (§4) The pH optimum of the heterologously produced β-glucosidases was determined in the universal McIlvaine's buffer within a pH range of 3.0-8.0 using 4-nitrophenyl-β-D-glucopyranoside as substrate. The pH optima for the Acremonium βG—101, Chaetomium βG—76, and Thermoascus βG—81 are pH 4.5, 5.5, and 4.5, respectively (FIG. 7 A). The optimal temperature for enzymatic activity of these β-glucosidases was determined at the temperature range of 50-85° C. as described above. The highest activity of the enzymes was determined to be at 70° C., 65° C., and 75° C. for the Acremonium βG—101/Cel3A, Chaetomium βG—76/Cel3A, and Thermoascus βG—81/Cel3A, respectively (FIG. 7 B).

[9] = pH optimum of heterologously produced β-glucosidases; format: biochemical; details: McIlvaine's buffer, pH range 3.0-8.0, 4-nitrophenyl-β-D-glucopyranoside
Procedure: as §4

Row | Molecule | Temperature optimum [1] [°C] | pI of the purified protein [2] | Xylanase activity of the preparation ([3]; assayed according to Bailey et al., 1992) | Specific activity on birch xylan ([3]; purified xylanase, 50° C., procedure of IUPAC 1987) [nkat/mg] | pH optimum [4] | β-glucosidase activity of the preparation ([5]; according to Bailey and Linko, 1990, listed as Ta βG—81/Cel3A) | Specific activity on 4-nitrophenyl-β-D-glucopyranoside ([5]; purified β-glucosidase, 50° C.) [nkat/mg] | Thermal stability: temperature up to which stable / 100% of activity retained [6] | Endoglucanase activity formed on pretreated Nutriose versus untreated Nutriose [7] | Temperature of highest activity [8] [°C] | pH optimum [9]
1 | Ta XYN_30: xylanase of Thermoascus aurantiacus ALKO4242, gene Ta xyn10A, amino acid SEQ ID NO: 18 | 75 | ca. 6.8 | 132 000 nkat/ml | 4800 | 4.5 | – | – | – | – | – | –
2 | B1 | – | > 5.85 and 4.55 | – | – | – | 6270 nkat/ml and 11500 nkat/ml | 600 | up to 75 °C | More than two-fold increase | 75 | 4.5

— US8409836B2, “Treatment of cellulosic material and enzymes useful therein” (Roal Oy, priority 2005, dated 2013)
